Laboratory results published in publication PMC8528238 (Nature, 2021).

Assays:
[1] = target: SARS-CoV-2 RBD sortase A conjugated nanoparticle (24-mer SARS-CoV-2 RBD-ferritin nanoparticle) (SARS-CoV-2, Wuhan strain, UniProt P0DTC2); assay: BLI
[2] = target: T1, monomeric SARS-CoV-2 RBD (wildtype Spike RBD monomer) (SARS-CoV-2, Wuhan strain, UniProt P0DTC2); assay: ELISA
[3] = target: T1, monomeric SARS-CoV-2 RBD (wildtype …); assay: SPR

B1: DH1041, SARS-CoV-2-specific ACE2-binding site-focused RBD neutralizing antibody (antibody, V domains shown)
VH: EVQLVESGGGLVQPGGSLRLSCAASGVTFSSYWMSWVRQAPGKGLEWVANIRQDGSEKYSVDSVKGRFTISRDNAKNSLYLQMNSLRAEDTAVYYCARARRADNSGYYGFHFDCWGQGTLVTVSS
VL: QSVLTQPPSVSGAPGQRVTISCTGSSSNIGAGYDVHWYQQLPGTAPKLLIYGNNNRPSGVPDRFSDSKSGTSASLAITRLQAEDEADYYCQSYDSSLSGWVFGGGTKLTVL
binding result [1]: binds | binding result [2]: binds

B2: DH1047 antigen binding fragment (Fab) (Fab, V domains shown)
VH: QVQLVQSGAEVKKPGASVQVSCQASANTFTNHYIHWVRQAPGQGLEWMGIIYPTGGNTIYAQGFQGRVTMTRDTSLNTIYLELSSLRSEDTAVYYCARDVRVDDSWSGYDLLSGGTYFDYWGQGTLVTVSS
VL: not shown
Kd [3]: < 0.02 nM
